The target of assay [1] is T1, human PD-L2-His6 (human, UniProt Q9BQ51 20-220).
T1 construct: extracellular domain; also called hPD-L2; B7-DC; not shown: His6 tag (by the name PD-L2-His6)
T1 sequence (looked up): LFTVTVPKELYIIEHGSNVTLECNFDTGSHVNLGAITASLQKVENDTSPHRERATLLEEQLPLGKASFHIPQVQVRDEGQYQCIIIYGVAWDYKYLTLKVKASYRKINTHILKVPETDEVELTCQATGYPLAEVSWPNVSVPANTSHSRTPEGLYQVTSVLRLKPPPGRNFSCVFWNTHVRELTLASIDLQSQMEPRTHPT
Put plainly: BLI, PD-1-Fc on AHC biosensor. The protocol:
(§1) BLI was performed on an Octet RED96® system at 30° C. in a buffer of 150 mM NaCl, 20 mM HEPES:NaOH pH 7.4, 0.1% BSA and 0.05% Tween 20. The human PD-1-Fc proteins were loaded onto anti-human IgG Fc capture (AHC) biosensors, associated in defined concentrations of human PD-L2-His6 or PD-L1-His6 proteins, and then dissociated in buffer.
(§2) Using bio-layer interferometry (BLI), the binding of PD-L2 to wild-type PD-1 and the variants was compared (data not shown). The binding of sensor-loaded PD-1 and the loop variants to 190 nM PD-L2 and 1.1 μM PD-L1 was measured using biolayer interferometry. Corresponding PD-1-Fc proteins were loaded on anti-human IgG Fc capture (AHC) biosensors. Association was monitored for 2 min and dissociation for 2 min. Fitting of binding curves was performed in Graphpad Prism 8 software using built-in equations of “Receptor binding—kinetics” models. Means and standard deviations were calculated from 3-4 independent experiments. […] Fitting of binding curves was performed in Graphpad Prism 8 using built-in equations of “Receptor binding—kinetics” models. Means and standard deviations were calculated from 3-4 independent experiments. […] Kinetic measurements of binding of the ligands by PD-1 with BLI also permitted the determination of association constants (kₒₙ).
(In general: Biolayer interferometry detects binding as a change in optical thickness at a sensor tip.)

Assay [2] addresses T2, human PD-L1-His6 (human, UniProt Q9NZQ7 19-238).
T2 construct: extracellular domain; also called hPD-L1; B7-H1; not shown: His6 tag (by the name PD-L1-His6)
The assay is described as follows: BLI, PD-1-Fc on AHC biosensor. The protocol:
as §1, §2

The target of assay [3] is T1, human PD-L2-His6. Put plainly: BLI (Octet RED96), PD-1-Fc on AHC biosensor, PD-L2-His6 in solution. The method, then:
as §1, §2

Assay [4] addresses T2, human PD-L1-His6. The assay is described as follows: BLI (Octet RED96), PD-1-Fc on AHC biosensor, PD-L1-His6 in solution. The method, then:
as §1, §2

T2 sequence (Q9NZQ7 19-238): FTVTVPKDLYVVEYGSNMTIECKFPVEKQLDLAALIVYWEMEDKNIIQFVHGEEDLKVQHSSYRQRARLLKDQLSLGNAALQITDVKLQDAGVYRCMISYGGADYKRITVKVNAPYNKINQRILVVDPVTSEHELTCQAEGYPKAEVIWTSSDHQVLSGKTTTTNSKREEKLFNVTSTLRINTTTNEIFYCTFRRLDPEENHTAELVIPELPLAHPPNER

B1: human PD-1-Fc N74G T76P A132V (Fc fusion)
chain: PGWFLDSPDRPWNPPTFSPALLVVTEGDNATFTCSFSNTSESFVLNWYRMSPSGQPDKLAAFPEDRSQPGQDCRFRVTQLPNGRDFHMSVVRARRNDSGTYLCGAISLAPKVQIKESLRAELRVTERRAE
notes: also called PD-1 triple mutant; triple-mutant; not shown: Fc portion
On to B1, for which, in the assay with human PD-L2-His6 [1], the “fold increase in binding affinity against wild-type PD-1” value was around 200 fold and the “fold increase of kon against wild-type PD-1” value came to 3 fold. Further, the “fold increase of kon against wild-type PD-1” value in the assay with human PD-L1-His6 [2] came to 14 fold. In addition, in the assay with human PD-L2-His6 [3], the affinity, expressed as Kd, was 2.6 nM; the off-rate (koff) worked out at 0.0014 s⁻¹; the kon was 580000 M⁻¹ s⁻¹. In the assay with human PD-L1-His6 [4], this molecule had a Kd of 72 nM, a koff of 0.036 s⁻¹ and a kon of 520000 M⁻¹ s⁻¹.

Broadly, the Kd is the constant that tells how readily two partners part at equilibrium. Low readings indicate higher affinity, high ones lower affinity. As usually defined, the koff is the rate constant with which the complex falls apart. A high value points to a short-lived complex. As a reminder, the kon is the second-order rate constant of association. The low end stands for slow association, the high end for fast association.
